Experimental data: patent publication US20060257938A1, “Method of screening for drugs that block ligand binding to a lipid binding protein” (priority 2005, published 2006)

What was measured:
Type in all cases: binding
[1] = Probe fluorescence ratio response to linolenic acid relative to ADIFAB2; details: response relative to ADIFAB2
In short: (§1)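 Each fatty acid's response was expressed relative to ADIFAB2, the rI-FABP-L72A probe, as ΔR/ΔRreference. ΔR is the change in the background-corrected two-wavelength intensity ratio R=Fλ1/Fλ2 from its analyte-free baseline R0. Emission was read near about 420-480 nm for unbound and about 495-580 nm for FFA-bound probe.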

[2] = Probe fluorescence ratio response to oleic acid relative to ADIFAB2; details: response relative to ADIFAB2
In short: as §1

[3] = Probe fluorescence ratio response to arachidonic acid relative to ADIFAB2; details: arachidonic acid; response relative to ADIFAB2
In short: as §1

[4] = Probe fluorescence ratio response to linoleic acid relative to ADIFAB2; details: response relative to ADIFAB2
In short: as §1

[5] = Probe fluorescence ratio response to palmitoleic acid relative to ADIFAB2; details: response relative to ADIFAB2
In short: as §1

[6] = Probe fluorescence ratio response to palmitic acid relative to ADIFAB2; details: response relative to ADIFAB2
In short: as §1

[7] = Probe fluorescence ratio response to stearic acid relative to ADIFAB2; details: response relative to ADIFAB2
In short: as §1

Row | Molecule | DR/DR LNA [1] | DR/DR OA [2] | DR/DR AA [3] | DR/DR LA [4] | DR/DR POA [5] | DR/DR PA [6] | DR/DR SA [7]
1 | 73F 72A (protein, listed as Rattus norvegicus, PEPTIDE (1)...(131) wild-type rat intestinal fatty acid binding protein) AFDGTWKVDRNENYEKFMEKMGINVVKRKLGAHDNLKLTITQEGNKFTVKESSNFRNIDVVFELGVDFAYSAFDGTELTGTWTMEGNKLVGKFKRVDNGKELIAVREISGNELIQTYTYEGVEAKRIFKKE | 1.775 | 0.630 | 1.051 | 1.171 | 2.381 | 1.118 | 0.399
2 | 74E 72A 73F (protein, listed as Rattus norvegicus, PEPTIDE (1)...(131) wild-type rat intestinal fatty acid binding protein) AFDGTWKVDRNENYEKFMEKMGINVVKRKLGAHDNLKLTITQEGNKFTVKESSNFRNIDVVFELGVDFAYSAFEGTELTGTWTMEGNKLVGKFKRVDNGKELIAVREISGNELIQTYTYEGVEAKRIFKKE | 1.558 | 0.575 | 0.703 | 1.093 | 2.395 | 1.026 | 0.251
3 | 55V 73F 72A (protein, listed as Rattus norvegicus, PEPTIDE (1)...(131) wild-type rat intestinal fatty acid binding protein) AFDGTWKVDRNENYEKFMEKMGINVVKRKLGAHDNLKLTITQEGNKFTVKESSNVRNIDVVFELGVDFAYSAFDGTELTGTWTMEGNKLVGKFKRVDNGKELIAVREISGNELIQTYTYEGVEAKRIFKKE | 1.566 | 0.661 | 0.864 | 1.223 | 2.264 | 1.082 | 0.285
4 | 18V 31F 73M 72A (protein, listed as Rattus norvegicus, PEPTIDE (1)...(131) wild-type rat intestinal fatty acid binding protein) AFDGTWKVDRNENYEKFVEKMGINVVKRKLFAHDNLKLTITQEGNKFTVKESSNFRNIDVVFELGVDFAYSAMDGTELTGTWTMEGNKLVGKFKRVDNGKELIAVREISGNELIQTYTYEGVEAKRIFKKE | 1.511 | 0.794 | 1.014 | 1.296 | 1.538 | 1.395 | 0.383
5 | 72G 73F 74N (protein, listed as Rattus norvegicus, PEPTIDE (1)...(131) wild-type rat intestinal fatty acid binding protein) AFDGTWKVDRNENYEKFMEKMGINVVKRKLGAHDNLKLTITQEGNKFTVKESSNFRNIDVVFELGVDFAYSGFNGTELTGTWTMEGNKLVGKFKRVDNGKELIAVREISGNELIQTYTYEGVEAKRIFKKE | 1.367 | −0.032 | 0.617 | 0.454 | 1.499 | 0.456 | −0.043
6 | 73P 72A 74F (protein, listed as Rattus norvegicus, PEPTIDE (1)...(131) wild-type rat intestinal fatty acid binding protein) AFDGTWKVDRNENYEKFMEKMGINVVKRKLGAHDNLKLTITQEGNKFTVKESSNFRNIDVVFELGVDFAYSAPFGTELTGTWTMEGNKLVGKFKRVDNGKELIAVREISGNELIQTYTYEGVEAKRIFKKE | 1.518 | 0.868 | 1.078 | 0.838 | 1.776 | 1.278 | 0.494
7 | 18I 31L 55L 72A (protein, listed as Rattus norvegicus, PEPTIDE (1)...(131) wild-type rat intestinal fatty acid binding protein) AFDGTWKVDRNENYEKFIEKMGINVVKRKLLAHDNLKLTITQEGNKFTVKESSNLRNIDVVFELGVDFAYSAADGTELTGTWTMEGNKLVGKFKRVDNGKELIAVREISGNELIQTYTYEGVEAKRIFKKE | 1.736 | 0.759 | 1.285 | 1.442 | 2.011 | 1.523 | 0.310
8 | 18V 31F 55L 72A (protein, listed as Rattus norvegicus, PEPTIDE (1)...(131) wild-type rat intestinal fatty acid binding protein) AFDGTWKVDRNENYEKFVEKMGINVVKRKLFAHDNLKLTITQEGNKFTVKESSNLRNIDVVFELGVDFAYSAADGTELTGTWTMEGNKLVGKFKRVDNGKELIAVREISGNELIQTYTYEGVEAKRIFKKE | 1.180 | 0.649 | 0.921 | 0.996 | 1.353 | 1.035 | 0.358
9 | 72S 73W 74G (protein, listed as Rattus norvegicus, PEPTIDE (1)...(131) wild-type rat intestinal fatty acid binding protein) AFDGTWKVDRNENYEKFMEKMGINVVKRKLGAHDNLKLTITQEGNKFTVKESSNFRNIDVVFELGVDFAYSSWGGTELTGTWTMEGNKLVGKFKRVDNGKELIAVREISGNELIQTYTYEGVEAKRIFKKE | 1.706 | 0.970 | 1.012 | 1.375 | 2.422 | 1.653 | 0.411
10 | 74S 72A 73F (protein, listed as Rattus norvegicus, PEPTIDE (1)...(131) wild-type rat intestinal fatty acid binding protein) AFDGTWKVDRNENYEKFMEKMGINVVKRKLGAHDNLKLTITQEGNKFTVKESSNFRNIDVVFELGVDFAYSAFSGTELTGTWTMEGNKLVGKFKRVDNGKELIAVREISGNELIQTYTYEGVEAKRIFKKE | 1.433 | 0.630 | 0.893 | 1.035 | 2.413 | 1.158 | 0.337
11 | 18I 31V 55V 73V 72A (protein, listed as Rattus norvegicus, PEPTIDE (1)...(131) wild-type rat intestinal fatty acid binding protein) AFDGTWKVDRNENYEKFIEKMGINVVKRKLVAHDNLKLTITQEGNKFTVKESSNVRNIDVVFELGVDFAYSAVDGTELTGTWTMEGNKLVGKFKRVDNGKELIAVREISGNELIQTYTYEGVEAKRIFKKE | 1.179 | 0.448 | 0.632 | 0.853 | 1.236 | 0.974 | 0.233
12 | 72S 73Q 74A (protein, listed as Rattus norvegicus, PEPTIDE (1)...(131) wild-type rat intestinal fatty acid binding protein) AFDGTWKVDRNENYEKFMEKMGINVVKRKLGAHDNLKLTITQEGNKFTVKESSNFRNIDVVFELGVDFAYSSQAGTELTGTWTMEGNKLVGKFKRVDNGKELIAVREISGNELIQTYTYEGVEAKRIFKKE | 2.077 | 1.875 | 2.290 | 2.140 | 2.293 | 1.896 | 1.311
13 | 38I 74F 72A (protein, listed as Rattus norvegicus, PEPTIDE (1)...(131) wild-type rat intestinal fatty acid binding protein) AFDGTWKVDRNENYEKFMEKMGINVVKRKLGAHDNLKITITQEGNKFTVKESSNFRNIDVVFELGVDFAYSAAFGTELTGTWTMEGNKLVGKFKRVDNGKELIAVREISGNELIQTYTYEGVEAKRIFKKE | 1.395 | 0.764 | 0.787 | 1.162 | 2.112 | 1.343 | 0.503
14 | 73T 72A 74F (protein, listed as Rattus norvegicus, PEPTIDE (1)...(131) wild-type rat intestinal fatty acid binding protein) AFDGTWKVDRNENYEKFMEKMGINVVKRKLGAHDNLKLTITQEGNKFTVKESSNFRNIDVVFELGVDFAYSATFGTELTGTWTMEGNKLVGKFKRVDNGKELIAVREISGNELIQTYTYEGVEAKRIFKKE | 1.661 | 1.161 | 0.939 | 1.389 | 2.450 | 1.632 | 0.519
15 | 74T 72A 73F (protein, listed as Rattus norvegicus, PEPTIDE (1)...(131) wild-type rat intestinal fatty acid binding protein) AFDGTWKVDRNENYEKFMEKMGINVVKRKLGAHDNLKLTITQEGNKFTVKESSNFRNIDVVFELGVDFAYSAFTGTELTGTWTMEGNKLVGKFKRVDNGKELIAVREISGNELIQTYTYEGVEAKRIFKKE | 1.635 | 0.634 | 0.852 | 1.185 | 2.309 | 1.150 | 0.273
